In the supplement of paper PMC7877785:
± gives the uncertainty stated by the source.

Test: self-splicing fitness, log relative to wild type (ln ratio); higher = more splicing; Tetrahymena group I intron in knt gene, E. coli kanamycin selection, DiMSum; sequences stand for … in CUCUCU…GGAGGGAAAAGUUAUCAGGCAUGCACCUGGUAGCUAGUCUUUAAACCAAUAGAUUGCAUCGGUUUAAAAGGCAAGACCGUCAAAUUGCGGGAAAGGGGUCAACAGCCGUUCAGUACCAAGUCUCAGGGGAAACUUUGAGAUGGCCUUGCAAAGGGUAUGGUAAUAAGCUGACGGACAUGGUCCUAACCACGCAGCCAAGUCCUAAGUCAACAGAUCUUCUGUUGAUAUGGAUGCAGUUCACAGACUAAAUGUCGGUCGGGGAAGAUGUAUUCUUCUCAUAAGAUAUAGUCGGACCUCUCCUUAAUGGGAGCUAGCGGAUGAAGUGAUGCAACACUGGAGCCGCUGGGAACUAAUUUGUAUGCGAAAGUAUAUUGAUUAGUUUUGGAGUACUCGUGGUCG
How it was run: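 The eight P1ex-region nucleotides of an intron in the knt kanamycin-resistance gene on pET-22b(+) were all randomised and the library put into E. coli BL21(DE3). Six replicate transformations were grown overnight at 37°C or 30°C on LB agar with or without 25 μg/mL kanamycin, together with 100 μg/mL carbenicillin, 50 μM IPTG and 0.2% rhamnose. Colonies were pooled and amplicon-sequenced on an Illumina HiSeq 2500. Fitness from DiMSum is the error-weighted combination of wild-type-normalised replicate fold changes, kanamycin over none.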

Row | Sequence | self-splicing fitness (ln) (30 °C) | self-splicing fitness (ln) (37 °C)
1 | CUACAGCAAUAUUACGCCCC | -2.86 ± 0.41 | -1.4 ± 0.35
2 | CUACAGCAAUAUUACGCUAG | -3.58 ± 0.18 | -2.36 ± 0.23
3 | CUACAGCAAUAUUACGCUGU | -3.9 ± 0.2 | -2.8 ± 0.22
4 | CUACAGCAAUAUUACGCUUG | -2.37 ± 0.15 | -2.26 ± 0.16
5 | CUACAGCAAUAUUACGGCUC | -3.53 ± 0.23 | -1.8 ± 0.31
6 | CUACAGCAAUAUUACGGUAG | -3.39 ± 0.15 | -3.06 ± 0.23
7 | CUACAGCAAUAUUACGGUCA | -3.37 ± 0.28 | -1.96 ± 0.24
8 | CUACAGCAAUAUUACGUAAG | -1.14 ± 0.068 | -0.424 ± 0.092
9 | CUACAGCAAUAUUACGUACG | -0.289 ± 0.088 | 0.18 ± 0.099
10 | CUACAGCAAUAUUACGUCAC | -3.35 ± 0.36 | -2.13 ± 0.18
11 | CUACAGCAAUAUUACGUCGU | -3.3 ± 0.35 | -2.83 ± 0.25
12 | CUACAGCAAUAUUACGUGCC | -2.73 ± 0.26 | -2.39 ± 0.38
13 | CUACAGCAAUAUUACGUGGA | -2.58 ± 0.12 | -3.11 ± 0.21
14 | CUACAGCAAUAUUACGUUAC | -4.4 ± 0.26 | -3.72 ± 0.33
15 | CUACAGCAAUAUUACGUUAU | -3.96 ± 0.13 | -2.79 ± 0.15
16 | CUACAGCAAUAUUACGUUUG | -0.766 ± 0.04 | -0.34 ± 0.06
17 | CUAGAGCAAUAUUACGACAC | -3.9 ± 0.39 | -2.63 ± 0.48
18 | CUAGAGCAAUAUUACGACUC |  | -1.39 ± 0.48
19 | CUAGAGCAAUAUUACGCCAC |  | -3.44 ± 0.47
20 | CUAGAGCAAUAUUACGCCUA | -2.2 ± 0.14 | -1.15 ± 0.12
21 | CUAGAGCAAUAUUACGCGCC | -2.12 ± 0.38 | 
22 | CUAGAGCAAUAUUACGCGCU | -3.47 ± 0.23 | -2.19 ± 0.27
23 | CUAGAGCAAUAUUACGCUAG | -3.78 ± 0.34 | -2.49 ± 0.28
24 | CUAGAGCAAUAUUACGCUUG | -3.03 ± 0.21 | -1.83 ± 0.23
25 | CUAGAGCAAUAUUACGGCAU | -3.75 ± 0.19 | -2.75 ± 0.28

Row | Sequence | self-splicing fitness (ln) (30 °C) | self-splicing fitness (ln) (37 °C)
26 | CUAGAGCAAUAUUACGGCUG | 0.203 ± 0.11 | -0.255 ± 0.14
27 | CUAGAGCAAUAUUACGGUCA | -3.55 ± 0.23 | -2.47 ± 0.44
28 | CUAGAGCAAUAUUACGGUUA | -3.66 ± 0.24 | -3.14 ± 0.4
29 | CUAGAGCAAUAUUACGUAAG | -0.628 ± 0.06 | 0.154 ± 0.089
30 | CUAGAGCAAUAUUACGUACC | -4.52 ± 0.24 | -3.09 ± 0.35
31 | CUAGAGCAAUAUUACGUGCC | -2.84 ± 0.24 | -1.41 ± 0.24
32 | CUAGAGCAAUAUUACGUUCC |  | 0.291 ± 0.28
33 | CUAGAGCAAUAUUACGUUGC | -3.14 ± 0.32 | -2.18 ± 0.44
34 | CUAGAGCAAUAUUACGUUGG | -1.71 ± 0.11 | -0.638 ± 0.13
35 | CUAGAGCAAUAUUACGUUUC | -4.04 ± 0.31 | -2.01 ± 0.28
36 | CUAGAGCAAUAUUACGUUUG | -1.33 ± 0.088 | -0.528 ± 0.1
37 | CUAUAGCAAUAUUACGAACU | -3.67 ± 0.43 | 
38 | CUAUAGCAAUAUUACGAAUC | -2.05 ± 0.36 | -1.9 ± 0.33
39 | CUAUAGCAAUAUUACGAAUG | -0.481 ± 0.087 | 0.0255 ± 0.12
40 | CUAUAGCAAUAUUACGACAU | -4.157 ± 0.031 | -3.08 ± 0.045
41 | CUAUAGCAAUAUUACGACUU | -2.98 ± 0.3 | -1.54 ± 0.34
42 | CUAUAGCAAUAUUACGAUGU | -3.67 ± 0.4 | -3.04 ± 0.43
43 | CUAUAGCAAUAUUACGCAUA | -3.93 ± 0.29 | -2.68 ± 0.24
44 | CUAUAGCAAUAUUACGCGAA | -3.27 ± 0.2 | -3.06 ± 0.33
45 | CUAUAGCAAUAUUACGCGCG | -0.981 ± 0.2 | 0.458 ± 0.25
46 | CUAUAGCAAUAUUACGCGUC | -3.97 ± 0.34 | -2.71 ± 0.25
47 | CUAUAGCAAUAUUACGUAAC | -1.97 ± 0.42 | 
48 | CUAUAGCAAUAUUACGUAAU | -2.07 ± 0.16 | -3.88 ± 0.36
49 | CUAUAGCAAUAUUACGUACG | 0.0512 ± 0.15 | -0.136 ± 0.14
